According to the RNAGym collection of RNA variant scans (doi:10.1073/pnas.2313332121):
Variants at the floor of the assay were thinned out.

B1: TPR 5TU (parent)
chain: GGAUCUUCUCGAUCUAACAAAAAAGACAAAUCUGCCACAAAGCUUGAGAGCAUCUUCGGAUGCAGAGGCGGCAGCCUUCGGUGGCGCGAUAGCGCCAACGUUCUCAACUAUGACACGCAAAACGCGUGCUCCGUUGAAUGGAGUUUAUCAUG

Variants of: B1
Assay: polymerase ribozyme fitness, log enrichment relative to wild type (log ratio); higher = more active; in vitro selection for triplet polymerase activity
Method in brief: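 Input and output libraries were sequenced on Illumina after a single in vitro selection round, run in triplicate on PCR-built, transcribed mutant libraries of each subunit of a heterodimeric triplet polymerase ribozyme. Selection annealed libraries to a biotinylated primer, the partner subunit and triplets, incubated them frozen at −7 °C, then gel-excised extended constructs for streptavidin-bead capture and RT-PCR. Genotypes with ≥10 input reads and ≥1 read per output were kept. Fitness is the logarithm, taken in base 2, of genotype enrichment divided by wild-type enrichment, using inverse-variance-weighted replicate averages.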

| Variant | polymerase ribozyme fitness (log ratio) |
| --- | --- |
| A17U C69U G84C A97G | ≤ -4.2 |
| G84U U144G | -0.698 |
| U13A A23G C27U A28C C54U C85U C93U A115C C116G A121G A150C | -3.82 |
| U7G U15G A21C A39G U45G G92U U127C | ≤ -4.2 |
| A28C A49U U56A G65A G70C A91U G94C G117C U151A | ≤ -4.2 |
| C8G A52G C57U G80C U104G U148G | ≤ -4.2 |
| G94C A122C | -0.988 |
| A20C A37C A40C G58C C95U | -4.12 |
| U15C C18A G83A C93U A122U | -1.53 |
| G50A C93U A142U | -3.71 |
| A22U G92C C93U A119G | -3.96 |
| A24G G25A G84A C125G G152A | ≤ -4.2 |
| G50A G70A C75A | ≤ -4.2 |
| A39U C43U U61A U135G G136A | ≤ -4.2 |
| A21C A91G C96U | -3.34 |
| A3U U4C A52C G67A G83U A122U A137U U148A | ≤ -4.2 |
| G68U C85G U139A U145G U146G | ≤ -4.2 |
| G58A G143U | -1.82 |
| U15A C18G C27U U55A G86A C96G U104A A150G | ≤ -4.2 |
| C10U A39G G42U G59A A60C C63U A91U C105U A115C A142C | ≤ -4.2 |
| C5G A20C | -0.472 |

| Variant | polymerase ribozyme fitness (log ratio) |
| --- | --- |
| C32U G59C A89C G94C | -3.87 |
| A30C C87A | ≤ -4.2 |
| A41C G59A G86U | -2.6 |
| A49U C96A | -3.45 |
| C108U G133U | -3.96 |
| U7G C35U U45A A52U G59A C93G G128A G141C | ≤ -4.2 |
| C72G A147U | -3.16 |
| A21U C32A G58C | ≤ -4.2 |
| A39U A40U C54U G84C C85A G92C G128A | ≤ -4.2 |
| A49U A73G G86C A97U | ≤ -4.2 |
| C38U A66G G92U C108A G136U | ≤ -4.2 |
| U104G C118A A122C | -2.35 |
| A30U A40U C87G C103G G141A | -3.9 |
| C54U C95U A98G A142U | -1.61 |
| A37C C38U U53A A91G | -3.98 |
| C85U G94U A97U | -0.116 |
| A28U A37C U139C U151G | ≤ -4.2 |
| G11A C32A C93U | ≤ -4.2 |
| A28U C36G C85G G94A C131G | ≤ -4.2 |
| G25U C38U | -1.98 |
| U45A U56G A66C G67C G71U C85G G88U A89G C99U A110G C132G | ≤ -4.2 |

| Variant | polymerase ribozyme fitness (log ratio) |
| --- | --- |
| A17C A52G G81A G83A A98U | -0.507 |
| C35A A49G C87A C103A | ≤ -4.2 |
| U13G C27G C51A G84C A142G A147C | ≤ -4.2 |
| U15G A49G C87U G136A | -1.17 |
| G92C U148C | -2.56 |
| C43U U61G G94U C116U U144G C149G | ≤ -4.2 |
| A37G C93G A97C C116A | ≤ -4.2 |
| A19G A24G C43A G59A | ≤ -4.2 |
| G50U C57A C76A A122U C131G | ≤ -4.2 |
| G34A U55A | -2.46 |
| C93A U127C | -3.6 |
| C96U C125U | -0.382 |
| A37G G50U A97C A137G | -3.75 |
| C57U C79A A110C | ≤ -4.2 |
| U31G A40U G48A G84A C87U A119U | ≤ -4.2 |
| C85G G136A | -1.31 |
| U13G C57U C96G | -1.66 |
| G83A A147C | 0.0173 |
| C5A U9C C10G A26U U90G A137G A142U | ≤ -4.2 |
| C32U U56A A91U A113U C118A G143C C149U | ≤ -4.2 |
| C54G C75A | ≤ -4.2 |

| Variant | polymerase ribozyme fitness (log ratio) |
| --- | --- |
| U7A C18U | -3.45 |
| A97U G152A | -2.62 |
| C54G G92A C132A | ≤ -4.2 |
| A60C C85A G124C | -2.54 |
| C51U U139G U144A | 0.259 |
| A19G C85G | -2.84 |
| C85U C95A G136U A138C | ≤ -4.2 |
| A97C C103G C114G | -3.86 |
| A24C G67A G92U | ≤ -4.2 |
| C51U C85G A106G | -2.8 |
| U56A U61A C114G | -3.96 |
| A29C C51U G83C C95U A137G G143C | ≤ -4.2 |
| U33A A115G U139G | ≤ -4.2 |
| C8U G11C A23C A60G G94U G136U U144A | ≤ -4.2 |
| U55C U127A U139G | -3.31 |
| U4G A73G A97G | 0.0284 |
| G48A A52G C116U | -0.319 |
| C10U G80C G84U C87A C105A U151G | ≤ -4.2 |
| U55A U101G A107G A138C G141A | ≤ -4.2 |
| C5A A16G G50U C51A A89U U134G A137G G140A A142C A147C | ≤ -4.2 |
